US6191256A, “Recombinant factor VIII binding peptides” (Bayer Corporation, priority 1998, dated 2001)

Key:
rFVIII [1] = target: T1, rFVIII (Homo sapiens, UniProt P00451); assay: column format binding assay, rFVIII mass per fraction by sandwich capture ELISA for the light chain; settings: for 0.5M CaCl2 ng / 0.5M CaCl2 % total / 2% acetic acid % total / 2% acetic acid ng / Flow through % total / Total ng / Flow through ng: Table 6; for Flow through ng: 10,000 ng rFVIII in 1:10 PPF injected, 5° C.
Protocol: (§1) Immunoassay on rFVIII using a sandwich capture ELISA for the light chain and activity assay using a chromogenic substrate (COATEST Factor VIII kit from diaPharma, Franklin, Ohio) were performed on a BIOMEK® automated liquid handling system from Beckman Instruments (Brea, Calif.). The monoclonal antibody for rFVIII light chain (known as C7F7), the ELISA assay standard (lot A70K019), and the control for the activity assay (lot A70A001 @ 140 IU/mL) were from the Bayer Corporation (Berkeley, Calif.). The standard for the activity assay was at 11.2 IU/mL (Bayer, Clayton, N.C.), calibrated against the MEGA 1 standard, which is a working standard used by American manufacturers for measuring factor VIII activity (21).
(§2) Additional confirmatory binding assay and performance of the discovered binding peptides in terms of total rFVIII and activity recovery was performed in a column chromatographic format on a microbore HPLC. The resins were packed into 0.4×5 cm columns (Thomson, Springfield, Va.) and tested on the MICHROM HPLC system (Michrom BioResources, Auburn, Calif.). The elution program for the trials utilized the following method. The column was pre-equilibrated with equilibration buffer (as above). A 1 mL aliquot of 1:10 PPF followed by 1 mL of rFVIII (10,000 ng) in 1:10 PPF were injected and allowed sufficient time to flow through the column using equilibration buffer. The column was then washed with step elutions of 0.5 M and 1.0 M CaCl2 in equilibration buffer. The column was exposed to equilibration buffer. Remaining protein was eluted with 2% by volume glacial acetic acid in water. Columns were kept at 5° C. during the chromatographic runs. For each 1 mL injection (equilibration buffer, 1:10 PPF and 10,000 ng rFVIII in 1:10 PPF), the chromatographic cycle was run for 45 minutes (injection, flow through, 0.5 M CaCl2, 1.0 M CaCl2, equilibration buffer, 2% acetic acid, equilibration buffer).
(§3) A Gilson FC204 fraction collector at the HPLC outlet collected individual eluates for further analysis. Each collection tube had 100 μL hSA added to it to stabilize the rFVIII. Fractions collected from the 2% acetic acid eluates were neutralized with 2 M Tris, pH 10.5 to bring the pH to neutrality. The fractions were analyzed for total protein by the integration of the absorbance at 280 nm, for rFVIII by immunoassay (sandwich capture ELISA), and for rFVIII activity by a chromogenic substrate assay.
Tables 5 and 6 present the results from the additional confirmatory binding assays using the column format. The chromatography method was run by injecting the samples at a flow rate of 865 μL/min (413 cm/hr). In order to provide a 10 minute residence time of sample in the column the flow was decreased to 17 μL/min (10 cm/hr) upon injection.
Following the incubation, the flow was set at 865 μL/min (413 cm/hr) for the step clutions of 0.5 M CaCl2, 1.0 M CaCl2, and 2% acetic acid. Results are expressed in terms of the total mass of rFVIII in each fraction, as determined by the sandwich capture ELISA assay for the rFVIII light chain. […] A control using a non-binding peptide sequence (IGF) is also shown for comparison--in this case, 95% of the rFVIII loaded to the column was collected in the flow through fraction. Additional controls with no

rFVIII [2] = target: T1, rFVIII; assay: confirmatory binding assay in filtration plate format using 14C-rFVIII; settings: Table 4; for Total dpm / beads % total / beads dpm: 14C-rFVIII 30 nM; for 0.5M CaCl2 % total / 2% acetic acid % total / 2% acetic acid dpm / 0.5M CaCl2 dpm: 14C-rFVIII 30 nM in PPF, 5 mg beads; for 0.5M CaCl2 dpm: 5.0 × 10^15 dpm/mole, 5° C.; for beads % total / beads dpm: remaining on beads after washes
Protocol: Confirmatory binding assays were performed in a filtration plate format using individual peptide sequences synthesized directly onto the TOYOPEARL AF amino 650 M resin, at a final substitution density of 0.1 mmole/g resin. A slurry of each individual peptide sequence was prepared using deionized water. A 100 μL volume of beads (corresponding to 5 mg) was loaded into each well of the filtration plate (MULTISCREEN Assay System, Millipore, Bedford, Mass.), in triplicate for each peptide sequence. Beads were washed with 20% ethanol and incubated overnight with equilibration buffer (20 mM imidazole, 10 mM
CaCl2, 0.105 M NaCl, pH 6.9). A 100 μL aliquot of ^14 C-rFVIII diluted in neat PPF to a final concentration of 20-30 nM was loaded into each well and incubated for 1 hour at 5° C. Filtrate (unbound ^14 C-rFVIII) was collected into a microtiter plate and transferred to liquid scintillation vials for dpm counting. Beads were washed sequentially with: 100 μL of equilibration buffer for 15 minutes, 200 μL of 0.5 M CaCl2 (in equilibration buffer), 200 μL of 1.0 M CaCl2 (in equilibration buffer), and 200 uL of 2% by volume glacial acetic acid in water, for 1 hour each at 5° C. Scintillation counting on the unbound ^14 C-rFVIII (plus equilibration buffer wash), salt and acid washes, as well as on the beads was then performed and the overall mass balance calculated.
Beads presenting the appropriate peptide sequence on the surface were placed in the filtration plate wells and incubated sequentially with equilibration buffer, ^14 C-rFVIII in PPF, equilibration buffer, 0.5 M CaCl2 wash, 1.0 M CaCl2 wash and 2% acetic acid wash. After each incubation, filtrate was collected in microtiter plates, and dpm counted on each
In Table 3, the ^14 C-rFVIII was loaded at 20 nM (in PPF) and the radiolabeling yield was at 3.0×10^15 dpm/mole. In Table 4, the ^14 C-rFVIII was loaded at 30 nM (in PPF) and the radiolabeling yield was at 5.0×10^15 dpm/mole.

rFVIII [3] = target: T1, rFVIII; assay: rFVIII activity recovery from peptide columns by chromogenic substrate assay (COATEST); format: biochemical; settings: for 0.5M CaCl2 IU / 2% acetic acid % total / 2% acetic acid IU / Flow through % total / Total IU / 0.5M CaCl2 % total / Flow through IU: Table 8; for 0.5M CaCl2 % total: activity recovery; for Flow through IU: rFVIII activity in fraction
Protocol: as §1, §2, §3
Tables 7 and 8 list the sequences for which activity recovery was determined by a chromogenic substrate assay (COASTEST kit, diaPharma, Franklin, Ohio). Chromatographc conditions are the same as described above for the results from Tables 5 and 6. It can be

T1 sequence (P00451 20-2351): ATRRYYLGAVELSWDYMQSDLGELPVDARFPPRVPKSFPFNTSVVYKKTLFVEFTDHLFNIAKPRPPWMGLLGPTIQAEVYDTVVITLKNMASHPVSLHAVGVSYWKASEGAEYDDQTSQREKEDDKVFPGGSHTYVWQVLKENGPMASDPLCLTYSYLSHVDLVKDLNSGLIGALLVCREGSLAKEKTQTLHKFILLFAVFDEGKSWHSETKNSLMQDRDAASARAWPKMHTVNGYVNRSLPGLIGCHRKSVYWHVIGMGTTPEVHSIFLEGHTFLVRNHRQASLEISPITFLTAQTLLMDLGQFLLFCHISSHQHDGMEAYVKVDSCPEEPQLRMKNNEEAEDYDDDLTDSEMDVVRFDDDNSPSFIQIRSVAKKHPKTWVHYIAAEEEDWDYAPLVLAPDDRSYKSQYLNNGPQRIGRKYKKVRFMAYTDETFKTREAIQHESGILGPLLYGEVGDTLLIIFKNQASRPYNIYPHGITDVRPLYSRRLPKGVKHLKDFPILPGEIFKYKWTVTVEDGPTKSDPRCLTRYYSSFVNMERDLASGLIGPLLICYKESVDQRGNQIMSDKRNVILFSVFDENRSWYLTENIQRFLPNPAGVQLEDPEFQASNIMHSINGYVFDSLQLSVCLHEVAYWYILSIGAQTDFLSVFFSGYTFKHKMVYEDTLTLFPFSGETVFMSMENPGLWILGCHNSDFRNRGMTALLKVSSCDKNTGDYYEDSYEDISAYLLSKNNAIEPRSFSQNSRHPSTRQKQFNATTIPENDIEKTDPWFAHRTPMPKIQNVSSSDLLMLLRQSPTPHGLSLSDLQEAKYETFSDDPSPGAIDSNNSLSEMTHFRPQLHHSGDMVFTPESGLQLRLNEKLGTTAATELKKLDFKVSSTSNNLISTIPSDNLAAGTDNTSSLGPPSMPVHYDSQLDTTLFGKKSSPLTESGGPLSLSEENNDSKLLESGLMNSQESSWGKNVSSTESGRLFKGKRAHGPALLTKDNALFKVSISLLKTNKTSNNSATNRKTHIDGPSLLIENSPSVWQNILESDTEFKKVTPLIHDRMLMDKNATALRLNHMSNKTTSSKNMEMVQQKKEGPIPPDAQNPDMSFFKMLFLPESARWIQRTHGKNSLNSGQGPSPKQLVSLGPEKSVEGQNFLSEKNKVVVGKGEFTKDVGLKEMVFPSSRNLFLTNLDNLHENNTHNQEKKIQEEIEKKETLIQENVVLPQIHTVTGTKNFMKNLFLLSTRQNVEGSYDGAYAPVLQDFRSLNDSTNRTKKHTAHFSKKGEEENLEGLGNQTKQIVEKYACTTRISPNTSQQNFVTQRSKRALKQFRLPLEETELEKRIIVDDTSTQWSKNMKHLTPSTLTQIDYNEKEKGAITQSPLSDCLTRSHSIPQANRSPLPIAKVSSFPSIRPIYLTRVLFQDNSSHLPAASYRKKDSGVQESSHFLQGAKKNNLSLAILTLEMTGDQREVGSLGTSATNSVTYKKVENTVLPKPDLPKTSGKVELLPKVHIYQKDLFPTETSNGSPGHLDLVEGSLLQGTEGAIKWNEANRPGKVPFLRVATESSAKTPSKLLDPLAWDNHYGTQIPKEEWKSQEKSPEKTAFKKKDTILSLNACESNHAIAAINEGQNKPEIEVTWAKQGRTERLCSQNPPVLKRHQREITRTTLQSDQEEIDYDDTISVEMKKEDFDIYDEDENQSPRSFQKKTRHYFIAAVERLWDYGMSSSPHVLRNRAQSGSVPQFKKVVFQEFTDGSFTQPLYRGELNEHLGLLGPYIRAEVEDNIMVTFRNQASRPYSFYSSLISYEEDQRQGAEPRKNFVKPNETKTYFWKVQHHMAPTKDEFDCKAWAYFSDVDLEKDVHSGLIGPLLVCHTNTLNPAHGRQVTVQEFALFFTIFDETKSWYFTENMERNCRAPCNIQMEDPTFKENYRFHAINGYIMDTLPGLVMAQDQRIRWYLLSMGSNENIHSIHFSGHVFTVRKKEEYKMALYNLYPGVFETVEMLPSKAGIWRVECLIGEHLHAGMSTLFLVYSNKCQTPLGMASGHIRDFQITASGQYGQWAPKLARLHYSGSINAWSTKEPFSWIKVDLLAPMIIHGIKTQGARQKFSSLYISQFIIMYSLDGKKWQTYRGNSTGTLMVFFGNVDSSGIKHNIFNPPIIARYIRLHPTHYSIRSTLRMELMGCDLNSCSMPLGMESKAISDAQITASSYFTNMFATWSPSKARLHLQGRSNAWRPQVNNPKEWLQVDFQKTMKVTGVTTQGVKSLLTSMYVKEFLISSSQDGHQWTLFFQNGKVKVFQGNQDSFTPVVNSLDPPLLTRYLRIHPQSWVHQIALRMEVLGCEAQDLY
T1 sequence (P00451 1668-2351 limits assumed): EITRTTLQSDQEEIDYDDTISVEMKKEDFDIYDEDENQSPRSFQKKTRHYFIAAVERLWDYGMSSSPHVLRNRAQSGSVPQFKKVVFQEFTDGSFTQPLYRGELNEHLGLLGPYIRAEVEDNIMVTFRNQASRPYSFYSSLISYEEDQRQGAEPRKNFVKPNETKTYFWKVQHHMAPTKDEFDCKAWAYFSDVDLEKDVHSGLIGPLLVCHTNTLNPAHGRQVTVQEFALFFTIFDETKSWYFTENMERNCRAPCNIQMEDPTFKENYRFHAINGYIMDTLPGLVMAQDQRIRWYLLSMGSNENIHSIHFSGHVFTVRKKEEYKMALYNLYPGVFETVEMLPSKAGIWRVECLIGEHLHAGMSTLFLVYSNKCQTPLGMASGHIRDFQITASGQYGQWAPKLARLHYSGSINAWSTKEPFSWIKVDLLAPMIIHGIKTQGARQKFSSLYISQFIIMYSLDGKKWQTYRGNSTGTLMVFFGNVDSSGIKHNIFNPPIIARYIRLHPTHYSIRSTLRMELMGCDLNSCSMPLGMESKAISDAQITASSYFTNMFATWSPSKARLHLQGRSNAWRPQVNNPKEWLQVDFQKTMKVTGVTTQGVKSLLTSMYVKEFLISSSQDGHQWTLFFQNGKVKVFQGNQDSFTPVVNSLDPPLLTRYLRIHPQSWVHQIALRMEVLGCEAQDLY

Substance	0.5M CaCl2 ng (rFVIII [1]) [ng]	0.5M CaCl2 % total (rFVIII [1]) [%]	2% acetic acid % total (rFVIII [1]) [%]	2% acetic acid ng (rFVIII [1]) [ng]	Flow through % total (rFVIII [1]) [%]	Total ng (rFVIII [1]) [ng]	Flow through ng (rFVIII [1]) [ng]	Total dpm (rFVIII [2]) [dpm]	0.5M CaCl2 % total (rFVIII [2]) [%]	2% acetic acid % total (rFVIII [2]) [%]	2% acetic acid dpm (rFVIII [2]) [dpm]	0.5M CaCl2 dpm (rFVIII [2]) [dpm]	beads % total (rFVIII [2]) [%]	beads dpm (rFVIII [2]) [dpm]	0.5M CaCl2 IU (rFVIII [3]) [IU]	2% acetic acid % total (rFVIII [3]) [%]	2% acetic acid IU (rFVIII [3]) [IU]	Flow through % total (rFVIII [3]) [%]	Total IU (rFVIII [3]) [IU]	0.5M CaCl2 % total (rFVIII [3]) [%]	also measured
21 (HFQIFG) [compound 21]	1239	22	60	3284	0	5510	0	3484	21	63	2208	722	16	554	11.4	19	4.1	0	21.2	53	Flow through IU (rFVIII [3]): 0.0 IU
19 (FHFGLQ) [compound 19]	1075	25	60	2569	0	4283	0	2987	15	72	2148	457	13	382	9.9	7	1.4	2	19.5	51	Flow through IU (rFVIII [3]): 0.5 IU
12 (QRLIQF) [compound 12]	9223	96	2	188	0	9579	0	3557	90	8	271	3191	3	95	45.1	0	0.08	0	46.6	97	ELISA results % total (rFVIII [1]; Table 9, 0.5M CaCl2 fraction): 96%; Flow through IU (rFVIII [3]): 0.0 IU; Activity results % total (rFVIII [3]; Table 9, 0.5M CaCl2 fraction): 97%
